In US20180142032A1 (Sanofi, published 2018) one finds EC50, binding result and mean fluorescence data, which are given here for 3 molecules.

The target of experiment [1] is T1, human LAMP1 at the cell surface (human, UniProt P11279 29-417).
T1 construct: native on tumour cells (PDX, Colo205, SW480, LS174T) or from the cloned CDS NM_005561.3 in HEK293 and HCT116; signal peptide 1-28 left out; also called huLAMP1; full length human LAMP1
T1 sequence: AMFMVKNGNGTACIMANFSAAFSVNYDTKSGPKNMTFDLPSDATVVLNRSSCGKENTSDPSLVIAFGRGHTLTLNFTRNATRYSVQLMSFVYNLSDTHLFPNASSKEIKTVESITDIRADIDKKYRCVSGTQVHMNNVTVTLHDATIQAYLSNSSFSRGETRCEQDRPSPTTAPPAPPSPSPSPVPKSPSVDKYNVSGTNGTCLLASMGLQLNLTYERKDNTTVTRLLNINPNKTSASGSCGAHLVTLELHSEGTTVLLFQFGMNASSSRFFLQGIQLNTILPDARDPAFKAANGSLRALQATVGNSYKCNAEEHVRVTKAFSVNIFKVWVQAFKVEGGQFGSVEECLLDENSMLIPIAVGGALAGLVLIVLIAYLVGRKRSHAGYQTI
As to the kind of experiment: flow cytometry, dissociated CR-IGR-034P colon PDX cells. As for the experimental part:
Advanced human primary colon tumor CR-IGR-034P was obtained from Patient-derived xenograft in mice. Tumor CR-IGR-034P was enzymatically dissociated using collagenase Type IV (Invitrogen; #17104-019) and deoxyribonuclease I (Invitrogen; #18047-019) for 1 h at 4° C. Cell viability was estimated by Viacount application using Guava® easyCyte™ 8HT Flow Cytometry System. […] 100 μL/well of goat anti-mouse IgG conjugated with Alexa647 (Invitrogen; # A2135) or goat anti-human IgG conjugated with Alexa488 (Invitrogen; # A11013) was added for 45 min at 4° C. and washed three times with PBS 1% BSA. The antibody binding was evaluated after centrifugation and resuspension of cells by adding 200 μl/well PBS 1% BSA and read using Guava® easyCyte™ 8HT Flow Cytometry System. EC50 values were estimated using BIOST@T-SPEED software.
(Flow cytometry measures light scatter and fluorescence of single cells or particles in a stream.)

In another experiment the target is T2, LAMP1::histag (human, UniProt P11279 29-382).
T2 construct: extracellular domain without signal peptide, C-terminal 6 His tag, made in HEK293 cells; also called recombinant human LAMP1; human LAMP1 (29-382)
T2 sequence: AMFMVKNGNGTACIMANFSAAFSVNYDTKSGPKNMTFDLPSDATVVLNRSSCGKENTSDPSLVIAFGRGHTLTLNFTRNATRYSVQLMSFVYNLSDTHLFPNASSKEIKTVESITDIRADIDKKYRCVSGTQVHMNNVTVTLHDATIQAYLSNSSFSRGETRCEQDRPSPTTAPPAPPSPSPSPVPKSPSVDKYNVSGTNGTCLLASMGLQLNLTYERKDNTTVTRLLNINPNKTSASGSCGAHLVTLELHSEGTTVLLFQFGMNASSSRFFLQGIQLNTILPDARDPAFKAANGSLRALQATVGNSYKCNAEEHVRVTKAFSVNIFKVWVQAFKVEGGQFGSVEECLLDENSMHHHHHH
Put plainly: ELISA with LAMP1. (In general: In an ELISA, binding on a coated surface is turned into a signal by an enzyme label.)

Another experiment addresses T3, mLAMP1_hseq11_ΔGYQTI (mouse; human, UniProt P11438 25-369).
T3 construct: on cells; numbering read as for pXL6041; also called pXL6048; not shown: murine transmembrane domain and cytoplasmic tail with GYQTI replaced by 5 Ala
T3 chain: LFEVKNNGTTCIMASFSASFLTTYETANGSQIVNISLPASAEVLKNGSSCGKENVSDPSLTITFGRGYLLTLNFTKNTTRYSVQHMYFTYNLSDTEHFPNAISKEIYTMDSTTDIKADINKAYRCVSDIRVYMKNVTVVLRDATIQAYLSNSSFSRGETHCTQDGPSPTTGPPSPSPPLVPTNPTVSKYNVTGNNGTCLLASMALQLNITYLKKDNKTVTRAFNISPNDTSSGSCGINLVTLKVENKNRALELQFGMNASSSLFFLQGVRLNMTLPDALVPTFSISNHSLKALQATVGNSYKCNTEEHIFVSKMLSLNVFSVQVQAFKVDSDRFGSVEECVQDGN
Put plainly: flow cytometry, transfected 293-F cells, experiment 1.

For a further experiment, the target named is T4, mLAMP1_hseq6_ΔGYQTI (mouse; human, UniProt P11438 25-369).
T4 construct: on cells; numbering read as for pXL6041; also called pXL6047; not shown: murine transmembrane domain and cytoplasmic tail with GYQTI replaced by 5 Ala
T4 chain: T3 chain with Y68H, L69T, K76R, T78A, N151S, S152G, S153N, R156K, G157E
The description is as above.

In a further experiment the target is T5, mLAMP1_hseq6-11_ΔGYQTI (mouse; human, UniProt P11438 25-369).
T5 construct: on cells; also called pXL6041; not shown: murine transmembrane domain and cytoplasmic tail with GYQTI replaced by 5 Ala
T5 chain: T3 chain with Y68H, L69T, K76R, T78A
Put plainly: flow cytometry, transfected 293-F cells, experiment 2.

Numbering of substitutions follows the chain as printed.

B1: MAb3 (antibody, V domains shown)
VH: QIQLVQSGPELKKPGETVKISCKASGYIFTNYGMNWVKQAPGKGLKWMGWINTYTGESRYADDFKGRFALSLETSASTAYLQINNLENEDMATYFCAREDYYGNSPWFFDVWGAGTTVTVSS
VL: DIQMTQTTSSLSASLGDRVTISCNASQGINKYLNWYQQKPDGTVKLLIYYTSTLHSGVPSRFSGSGSGTDYSLTINNLEPEDIATYYCQQYTKLPFTFGSGTKLEIK
notes: murine monoclonal IgG, kappa, from hybridoma; also called murine MAb3
Consider B1, for which the EC50 (usually the concentration at which the effect is half-maximal) in experiment [1] is 6 nM.

B2: MAb1 (antibody, mouse IgG2a, kappa)
heavy: QVQLQQSGAELVKPGASVKMSCKASGYIFTNYNIHWVKKSPGQGLEWIGAIYPGNGDAPYSQKFKDKATLTADKSSSTTYMQLSRLTSEDSAVYYCVRANWDVAFAYWGQGTLVSVSAAKTTAPSVYPLAPVCGDTTGSSVTLGCLVKGYFPEPVTLTWNSGSLSSGVHTFPAVLQSDLYTLSSSVTVTSSTWPSQSITCNVAHPASSTKVDKKIEPRGPTIKPCPPCKCPAPNLLGGPSVFIFPPKIKDVLMISLSPIVTCVVVDVSEDDPDVQISWFVNNVEVHTAQTQTHREDYNSTLRVVSALPIQHQDWMSGKEFKCKVNNKDLPAPIERTISKPKGSVRAPQVYVLPPPEEEMTKKQVTLTCMVTDFMPEDIYVEWTNNGKTELNYKNTEPVLDSDGSYFMYSKLRVEKKNWVERNSYSCSVVHEGLHNHHTTKSFSRTPGK
light: DIQMTQSPPSLSASLGGKVTITCKASQDIDRYMAWYQDKPGKGPRLLIHDTSTLQPGIPSRFSGSGSGRDYSFSISNLEPEDIATYYCLQYDNLWTFGGGTKLEIKRADAAPTVSIFPPSSEQLTSGGASVVCFLNNFYPKDINVKWKIDGSERQNGVLNSWTDQDSKDSTYSMSSTLTLTKDEYERHNSYTCEATHKTSTSPIVKSFNRNEC
notes: murine monoclonal IgG, kappa, from hybridoma; also called murine MAb1
For B2, the EC50 with LAMP1::histag worked out at 0.18 nM. Besides, the binding result with mLAMP1_hseq11_ΔGYQTI and with mLAMP1_hseq6_ΔGYQTI was “no binding” throughout. The mean fluorescence with mLAMP1_hseq11_ΔGYQTI was 6; in the experiment with mLAMP1_hseq6_ΔGYQTI, 7; with mLAMP1_hseq6-11_ΔGYQTI, 211.

B3: MAb2 (antibody, mouse IgG1, kappa)
heavy: QVQLQQSAAELARPGASVKMSCKASGYTFTSYTMHWVKQRPGQGLEWIGYFNPSSGYPEYNQKFKDKTTLTADKSSNTAFIQLNSLTSEDSAVYYCSRGYYYGSRGYALDFWGQGASVTVSSAKTTPPSVYPLAPGSAAQTNSMVTLGCLVKGYFPEPVTVTWNSGSLSSGVHTFPAVLQSDLYTLSSSVTVPSSTWPSETVTCNVAHPASSTKVDKKIVPRDCGCKPCICTVPEVSSVFIFPPKPKDVLTITLTPKVTCVVVDISKDDPEVQFSWFVDDVEVHTAQTQPREEQFNSTFRSVSELPIMHQDWLNGKEFKCRVNSAAFPAPIEKTISKTKGRPKAPQVYTIPPPKEQMAKDKVSLTCMITDFFPEDITVEWQWNGQPAENYKNTQPIMDTDGSYFVYSKLNVQKSNWEAGNTFTCSVLHEGLHNHHTEKSLSHSPGK
light: NIVLTQSPVSLAVSLGQRATISCRASESVDINGNTFMHWYQQKPGQSPKLVIYAASNIESGVPARFSGSGSSTDFTFTIDPVEADDVATYYCQQNIEDPWTFGGGTKVEIKRADAAPTVSIFPPSSEQLTSGGASVVCFLNNFYPKDINVKWKIDGSERQNGVLNSWTDQDSKDSTYSMSSTLTLTKDEYERHNSYTCEATHKTSTSPIVKSFNRNEC
notes: murine monoclonal IgG, kappa, from hybridoma; also called murine MAb2
As for B3, the EC50 with LAMP1::histag stood at 0.25 nM; in experiment [1], 14 nM. Also, the binding result with mLAMP1_hseq11_ΔGYQTI and with mLAMP1_hseq6_ΔGYQTI was “no binding” in each case. Also, the mean fluorescence with mLAMP1_hseq11_ΔGYQTI is 28; with mLAMP1_hseq6_ΔGYQTI it was 25.
